Measured values reported in US20070203087A1.

Target: aggrecan (core protein carrying chondroitin sulfate chains) made by rat chondrosarcoma LTC cells (rat) (UniProt P07897)

| chondroitin sulfate synthesis activity (35S sulfate label in chondroitinase ABC-digested GAG fractions of transfected LTC cells and culture medium) [fold] | Substance |
| --- | --- |
| 2.2 | human chondroitin sulfate N-acetylgalactosaminyltransferase-1 (enzyme) |
| 1.6 | human chondroitin sulfate glucuronyltransferase (enzyme) |
